Experimental data from patent US20220401557A1 (Chugai, published 2022).

molecular target: CD3 on NFAT-RE-luc2-Jurkat cells (human, UniProt P07766 23-207); assay: cell-based or functional assay
Sequence (P07766 23-207): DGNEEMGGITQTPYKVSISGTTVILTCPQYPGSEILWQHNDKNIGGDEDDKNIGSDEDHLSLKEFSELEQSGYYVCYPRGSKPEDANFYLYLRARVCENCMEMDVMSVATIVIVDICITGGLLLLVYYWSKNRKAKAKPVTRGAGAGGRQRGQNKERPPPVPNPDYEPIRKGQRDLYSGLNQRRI

| Binder | increase rate due to the protease treatment (luciferase, uPA-treated / untreated), antibody 0.1 nM [ratio] | increase rate due to the protease treatment (luciferase, uPA-treated / untreated), antibody 1 nM [ratio] |
| --- | --- | --- |
| ANGS/GLS//GCH065 (bispecific antibody, human IgG1, kappa, N297A) heavy 1: QDGNEGGGSGGGSQVQLVESGGGLVQPGRSLRLSCAASGFTFSNAWMHWVRQAPGKGLEWVAQIKDKANGYNAYYAESVKGRFTISRDDSKNSIYLQMNSLKTEDTAVYYCRYVHYTTYAGFSYKFGVDAWGQGTTVTVSSASTKGPSVFPLAPSSKSTSGGTAALGCLVKDYFPEPVTVSWNSGALTSGVHTFPAVLQSSGLYSLSSVVTVPSSSLGTQTYICNVNHKPSNTKVDKKVEPKSCDKTHTCPPCPAPELRGGPKVFLFPPKPKDTLMISRTPEVTCVVVDVSHEDPEVKFNWYVDGVEVHNAKTKPREEQYASTYRVVSVLTVLHQDWLNGKEYKCKVSNKALPAPIEKTISKAKGQPREPQVYTLPPSRKEMTKNQVSLTCLVKGFYPSDIAVEWESNGQPENNYKTTPPYLDSDGSFFLYSKLTVDKSRWQQGNVFSCSVMHEALHNHYTQKSLSLSP light 1: DIVMTQSPLSLPVTPGEPASISCRSSQSLVHSNRNTYLHWYQQKPGQAPRLLIYKVSNRFSGVPDRFSGSGSGTDFTLKISRVEAEDVGVYYCGQGTQVPYTFGQGTKLEIKRTVAAPSVFIFPPSDEQLKSGTASVVCLLNNFYPREAKVQWKVDNALQSGNSQESVTEQDSKDSTYSLSSTLTLSKADYEKHKVYACEVTHQGLSSPVTKSFNRGEC heavy 2: QVQLVQSGAEVKKPGASVTVSCKASGYTFTDYEMHWIRQPPGEGLEWIGAIDGPTPDTAYSEKFKGRVTLTADKSTSTAYMELSSLTSEDTAVYYCTRFYSYTYWGQGTLVTVSSASTKGPSVFPLAPSSKSTSGGTAALGCLVKDYFPEPVTVSWNSGALTSGVHTFPAVLQSSGLYSLSSVVTVPSSSLGTQTYICNVNHKPSNTKVDKKVEPKSCDKTHTCPPCPAPELRGGPKVFLFPPKPKDTLMISRTPEVTCVVVDVSHEDPEVKFNWYVDGVEVHNAKTKPREEQYASTYRVVSVLTVLHQDWLNGKEYKCKVSNKALPAPIEKTISKAKGQPREPQVYTLPPSREEMTKNQVSLTCLVKGFYPSDIAVEWESNGQPENNYKTTPPYLDSDGSFFLYSKLTVDKSRWQQGNVFSCSVMHEALHNHYTQESLSLSP light 2: DIVMTQSPLSLPVTPGEPASISCRSSQPLVHSNRNTYLHWYQQKPGQAPRLLIYKVSNRFSGVPDRFSGSGSGTDFTLKISRVEAEDVGVYYCGQGTQVPYTFGQGTKLEIKRTVAAPSVFIFPPSDEQLKSGTASVVCLLNNFYPREAKVQWKVDNALQSGNSQESVTEQDSKDSTYSLSSTLTLSKADYEKHKVYACEVTHQGLSSPVTKSFNRGEC | 1 | 1 |
| AN/GLS//GCH065 (bispecific antibody, human IgG1, kappa, N297A) heavy 1: QVQLVESGGGLVQPGRSLRLSCAASGFTFSNAWMHWVRQAPGKGLEWVAQIKDKANGYNAYYAESVKGRFTISRDDSKNSIYLQMNSLKTEDTAVYYCRYVHYTTYAGFSYKFGVDAWGQGTTVTVSSASTKGPSVFPLAPSSKSTSGGTAALGCLVKDYFPEPVTVSWNSGALTSGVHTFPAVLQSSGLYSLSSVVTVPSSSLGTQTYICNVNHKPSNTKVDKKVEPKSCDKTHTCPPCPAPELRGGPKVFLFPPKPKDTLMISRTPEVTCVVVDVSHEDPEVKFNWYVDGVEVHNAKTKPREEQYASTYRVVSVLTVLHQDWLNGKEYKCKVSNKALPAPIEKTISKAKGQPREPQVYTLPPSRKEMTKNQVSLTCLVKGFYPSDIAVEWESNGQPENNYKTTPPYLDSDGSFFLYSKLTVDKSRWQQGNVFSCSVMHEALHNHYTQKSLSLSP light 1: DIVMTQSPLSLPVTPGEPASISCRSSQSLVHSNRNTYLHWYQQKPGQAPRLLIYKVSNRFSGVPDRFSGSGSGTDFTLKISRVEAEDVGVYYCGQGTQVPYTFGQGTKLEIKRTVAAPSVFIFPPSDEQLKSGTASVVCLLNNFYPREAKVQWKVDNALQSGNSQESVTEQDSKDSTYSLSSTLTLSKADYEKHKVYACEVTHQGLSSPVTKSFNRGEC heavy 2: QVQLVQSGAEVKKPGASVTVSCKASGYTFTDYEMHWIRQPPGEGLEWIGAIDGPTPDTAYSEKFKGRVTLTADKSTSTAYMELSSLTSEDTAVYYCTRFYSYTYWGQGTLVTVSSASTKGPSVFPLAPSSKSTSGGTAALGCLVKDYFPEPVTVSWNSGALTSGVHTFPAVLQSSGLYSLSSVVTVPSSSLGTQTYICNVNHKPSNTKVDKKVEPKSCDKTHTCPPCPAPELRGGPKVFLFPPKPKDTLMISRTPEVTCVVVDVSHEDPEVKFNWYVDGVEVHNAKTKPREEQYASTYRVVSVLTVLHQDWLNGKEYKCKVSNKALPAPIEKTISKAKGQPREPQVYTLPPSREEMTKNQVSLTCLVKGFYPSDIAVEWESNGQPENNYKTTPPYLDSDGSFFLYSKLTVDKSRWQQGNVFSCSVMHEALHNHYTQESLSLSP light 2: DIVMTQSPLSLPVTPGEPASISCRSSQPLVHSNRNTYLHWYQQKPGQAPRLLIYKVSNRFSGVPDRFSGSGSGTDFTLKISRVEAEDVGVYYCGQGTQVPYTFGQGTKLEIKRTVAAPSVFIFPPSDEQLKSGTASVVCLLNNFYPREAKVQWKVDNALQSGNSQESVTEQDSKDSTYSLSSTLTLSKADYEKHKVYACEVTHQGLSSPVTKSFNRGEC | 0.6 | 0.7 |

Results, then the binder that gave them:

| increase rate due to the protease treatment (luciferase, uPA-treated / untreated), antibody 0.1 nM [ratio] | increase rate due to the protease treatment (luciferase, uPA-treated / untreated), antibody 1 nM [ratio] | Binder |
| --- | --- | --- |
| 0.9 | 1.4 | hCE115HAuPA27/GLS//GCH065 (bispecific antibody, human IgG1, kappa, N297A) heavy 1: QDGNEEMGGITQTPYKVSISGTTVILTLSGRSDNHQVQLVESGGGVVQPGRSLRLSCAASGFTFSNAWMHWVRQAPGKGLEWVAQIKAKSNNYATYYAESVKGRFTISRDDSKNSLYLQMNSLKTEDTAVYYCRYVHYGAYYGVDAWGQGTTVTVSSASTKGPSVFPLAPSSKSTSGGTAALGCLVKDYFPEPVTVSWNSGALTSGVHTFPAVLQSSGLYSLSSVVTVPSSSLGTQTYICNVNHKPSNTKVDKKVEPKSCDKTHTCPPCPAPELRGGPKVFLFPPKPKDTLMISRTPEVTCVVVDVSHEDPEVKFNWYVDGVEVHNAKTKPREEQYASTYRVVSVLTVLHQDWLNGKEYKCKVSNKALPAPIEKTISKAKGQPREPQVYTLPPSRKEMTKNQVSLTCLVKGFYPSDIAVEWESNGQPENNYKTTPPYLDSDGSFFLYSKLTVDKSRWQQGNVFSCSVMHEALHNHYTQKSLSLSP light 1: DIVMTQSPLSLPVTPGEPASISCRSSQSLVHSNRNTYLHWYQQKPGQAPRLLIYKVSNRFSGVPDRFSGSGSGTDFTLKISRVEAEDVGVYYCGQGTQVPYTFGQGTKLEIKRTVAAPSVFIFPPSDEQLKSGTASVVCLLNNFYPREAKVQWKVDNALQSGNSQESVTEQDSKDSTYSLSSTLTLSKADYEKHKVYACEVTHQGLSSPVTKSFNRGEC heavy 2: QVQLVQSGAEVKKPGASVTVSCKASGYTFTDYEMHWIRQPPGEGLEWIGAIDGPTPDTAYSEKFKGRVTLTADKSTSTAYMELSSLTSEDTAVYYCTRFYSYTYWGQGTLVTVSSASTKGPSVFPLAPSSKSTSGGTAALGCLVKDYFPEPVTVSWNSGALTSGVHTFPAVLQSSGLYSLSSVVTVPSSSLGTQTYICNVNHKPSNTKVDKKVEPKSCDKTHTCPPCPAPELRGGPKVFLFPPKPKDTLMISRTPEVTCVVVDVSHEDPEVKFNWYVDGVEVHNAKTKPREEQYASTYRVVSVLTVLHQDWLNGKEYKCKVSNKALPAPIEKTISKAKGQPREPQVYTLPPSREEMTKNQVSLTCLVKGFYPSDIAVEWESNGQPENNYKTTPPYLDSDGSFFLYSKLTVDKSRWQQGNVFSCSVMHEALHNHYTQESLSLSP light 2: DIVMTQSPLSLPVTPGEPASISCRSSQPLVHSNRNTYLHWYQQKPGQAPRLLIYKVSNRFSGVPDRFSGSGSGTDFTLKISRVEAEDVGVYYCGQGTQVPYTFGQGTKLEIKRTVAAPSVFIFPPSDEQLKSGTASVVCLLNNFYPREAKVQWKVDNALQSGNSQESVTEQDSKDSTYSLSSTLTLSKADYEKHKVYACEVTHQGLSSPVTKSFNRGEC |
| 1.9 | 3 | ANuPA04/GLS//GCH065 (bispecific antibody, human IgG1, kappa, N297A) heavy 1: QDGNEEMGGGSGGGSGGGSLSGRSDNHGGGSQVQLVESGGGLVQPGRSLRLSCAASGFTFSNAWMHWVRQAPGKGLEWVAQIKDKANGYNAYYAESVKGRFTISRDDSKNSIYLQMNSLKTEDTAVYYCRYVHYTTYAGFSYKFGVDAWGQGTTVTVSSASTKGPSVFPLAPSSKSTSGGTAALGCLVKDYFPEPVTVSWNSGALTSGVHTFPAVLQSSGLYSLSSVVTVPSSSLGTQTYICNVNHKPSNTKVDKKVEPKSCDKTHTCPPCPAPELRGGPKVFLFPPKPKDTLMISRTPEVTCVVVDVSHEDPEVKFNWYVDGVEVHNAKTKPREEQYASTYRVVSVLTVLHQDWLNGKEYKCKVSNKALPAPIEKTISKAKGQPREPQVYTLPPSRKEMTKNQVSLTCLVKGFYPSDIAVEWESNGQPENNYKTTPPYLDSDGSFFLYSKLTVDKSRWQQGNVFSCSVMHEALHNHYTQKSLSLSP light 1: DIVMTQSPLSLPVTPGEPASISCRSSQSLVHSNRNTYLHWYQQKPGQAPRLLIYKVSNRFSGVPDRFSGSGSGTDFTLKISRVEAEDVGVYYCGQGTQVPYTFGQGTKLEIKRTVAAPSVFIFPPSDEQLKSGTASVVCLLNNFYPREAKVQWKVDNALQSGNSQESVTEQDSKDSTYSLSSTLTLSKADYEKHKVYACEVTHQGLSSPVTKSFNRGEC heavy 2: QVQLVQSGAEVKKPGASVTVSCKASGYTFTDYEMHWIRQPPGEGLEWIGAIDGPTPDTAYSEKFKGRVTLTADKSTSTAYMELSSLTSEDTAVYYCTRFYSYTYWGQGTLVTVSSASTKGPSVFPLAPSSKSTSGGTAALGCLVKDYFPEPVTVSWNSGALTSGVHTFPAVLQSSGLYSLSSVVTVPSSSLGTQTYICNVNHKPSNTKVDKKVEPKSCDKTHTCPPCPAPELRGGPKVFLFPPKPKDTLMISRTPEVTCVVVDVSHEDPEVKFNWYVDGVEVHNAKTKPREEQYASTYRVVSVLTVLHQDWLNGKEYKCKVSNKALPAPIEKTISKAKGQPREPQVYTLPPSREEMTKNQVSLTCLVKGFYPSDIAVEWESNGQPENNYKTTPPYLDSDGSFFLYSKLTVDKSRWQQGNVFSCSVMHEALHNHYTQESLSLSP light 2: DIVMTQSPLSLPVTPGEPASISCRSSQPLVHSNRNTYLHWYQQKPGQAPRLLIYKVSNRFSGVPDRFSGSGSGTDFTLKISRVEAEDVGVYYCGQGTQVPYTFGQGTKLEIKRTVAAPSVFIFPPSDEQLKSGTASVVCLLNNFYPREAKVQWKVDNALQSGNSQESVTEQDSKDSTYSLSSTLTLSKADYEKHKVYACEVTHQGLSSPVTKSFNRGEC |
